B1: Hammerhead Ribozyme (parent)
chain: ACCGGAUGUGCUUUCCGGUCUGAUGAGUCCGUGAGGACGAAACAG

Variants of: B1
Assay: self-cleavage, relative activity (ratio to wild type); higher = more cleavage; co-transcriptional

Variant | self-cleavage
ACCGGAUGUGCUUUCCGGUGUGAUGAGUCAGUGAGGACGAAACAG | 0.335
ACCGGAUGUGCUUUCCGGUGUGAUGAGUCGGUGAGGACGAAACAG | 0.37
ACCGGAUGUGCUUUCCGGUAUGAGGAGUCCGUGAGGACGAAACAG | 0.594
ACCGGAUGUGCUUUCCGGUAUGACGAGUCCGUGAGGACGAAACAG | 0.368
ACCGGAUGUGCUUUCCGGUAUGAAGAGUCCGUGAGGACGAAACAG | 0.764
ACCGGAUGUGCUUUCCGGUAUUAUGAGUCCGUGAGGACGAAACAG | 0.341
ACCGGAUGUGCUUUCCGGUAUCAUGAGUCCGUGAGGACGAAACAG | 0.349
ACCGGAUGUGCUUUCCGGUAUAAUGAGUCCGUGAGGACGAAACAG | 0.287
ACCGGAUGUGCUUUCCGGUAUGAUGAGUCCGUGAGGACAAAACAG | 0.347
ACCGGAUGUGCUUUCCGGUAUGAUGAGUCCGUGAGGACUAAACAG | 0.329
ACCGGAUGUGCUUUCCGGUAUGAUGAGUCCGUGAGGACCAAACAG | 0.393
ACCGGAUGUGCUUUCCGGUAUGAUGAGCCCGUGAGGACGAAACAG | 0.487
ACCGGAUGUGCUUUCCGGUAUGAUGAGACCGUGAGGACGAAACAG | 0.435
ACCGGAUGUGCUUUCCGGUAUGAUGAGGCCGUGAGGACGAAACAG | 0.552
ACCGGAUGUGCUUUCCGGUAUGAUGAGUCCGUGAGGAAGAAACAG | 0.292
ACCGGAUGUGCUUUCCGGUAUGAUGAGUCCGUGAGGAUGAAACAG | 0.385
ACCGGAUGUGCUUUCCGGUAUGAUGAGUCCGUGAGGAGGAAACAG | 0.429
ACCGGAUGUGCUUUCCGGUAUGAUGAGUCCGUGAGGACGAACCAG | 0.335
ACCGGAUGUGCUUUCCGGUAUGAUGAGUCCGUGAGGACGAAGCAG | 0.341

Variant | self-cleavage
ACCGGAUGUGCUUUCCGGUAUGAUGAGUCCGUGAGGACGAAUCAG | 0.386
ACCGGAUGUGCUUUCCGGUGUGAUGAGUUCGUGAGGACGAAACAG | 0.336
ACCGGAUGUGCUUUCCGGUGUGAUGAGUACGUGAGGACGAAACAG | 0.312
ACCGGAUGUGCUUUCCGGUGUGAUGAGUGCGUGAGGACGAAACAG | 0.35
ACCGGAUGUGCUUUCCGGUGUGAUGAGUCCGUGUGGACGAAACAG | 0.383
ACCGGAUGUGCUUUCCGGUGUGAUGAGUCCGUGGGGACGAAACAG | 0.245
ACCGGAUGUGCUUUCCGGUGUGAUGAGUCCGUGCGGACGAAACAG | 0.365
ACCGGAUGUGCUUUCCGGUGUGAUGAGUCCGUGAGGACGAGACAG | 0.332
ACCGGAUGUGCUUUCCGGUGUGAUGAGUCCGUGAGGACGACACAG | 0.329
ACCGGAUGUGCUUUCCGGUGUGAUGAGUCCGUGAGGACGAUACAG | 0.371
ACCGGAUGUGCUUUCCGGUAUGAUGGGUCCGUGAGGACGAAACAG | 0.344
ACCGGAUGUGCUUUCCGGUAUGAUGUGUCCGUGAGGACGAAACAG | 0.342
ACCGGAUGUGCUUUCCGGUAUGAUGCGUCCGUGAGGACGAAACAG | 0.397
ACCGGAUGUGCUUUCCGGGCUGAUGAGCCCGUGAGGACGAAACAG | 0.352
ACCGGAUGUGCUUUCCGGGCUGAUGAGACCGUGAGGACGAAACAG | 0.411
ACCGGAUGUGCUUUCCGGGCUGAUGAGGCCGUGAGGACGAAACAG | 0.355
ACCGGAUGUGCUUUCCGGUAUGAUGAGUCCGUGAAGACGAAACAG | 0.446
ACCGGAUGUGCUUUCCGGUAUGAUGAGUCCGUGACGACGAAACAG | 0.385
ACCGGAUGUGCUUUCCGGUAUGAUGAGUCCGUGAUGACGAAACAG | 0.345

Variant | self-cleavage
ACCGGAUGUGCUUUCCGGUAUGAUGACUCCGUGAGGACGAAACAG | 0.369
ACCGGAUGUGCUUUCCGGUAUGAUGAAUCCGUGAGGACGAAACAG | 0.333
ACCGGAUGUGCUUUCCGGUAUGAUGAUUCCGUGAGGACGAAACAG | 0.302
ACCGGAUGUGCUUUCCGGUACGAUGAGUCCGUGAGGACGAAACAG | 0.394
ACCGGAUGUGCUUUCCGGUAAGAUGAGUCCGUGAGGACGAAACAG | 0.228
ACCGGAUGUGCUUUCCGGUAGGAUGAGUCCGUGAGGACGAAACAG | 0.326
ACCGGAUGUGCUUUCCGGUGUGAUGAGUCCGUGAGGACGAAUCAG | 0.313
ACCGGAUGUGCUUUCCGGUGUGAUGAGUCCGUGAGGACGAACCAG | 0.307
ACCGGAUGUGCUUUCCGGUGUGAUGAGUCCGUGAGGACGAAGCAG | 0.324
ACCGGAUGUGCUUUCCGGUAUGAUGAGUACGUGAGGACGAAACAG | 0.382
ACCGGAUGUGCUUUCCGGUAUGAUGAGUGCGUGAGGACGAAACAG | 0.311
ACCGGAUGUGCUUUCCGGUAUGAUGAGUUCGUGAGGACGAAACAG | 0.357
ACCGGAUGUGCUUUCCGGUAUGAUGAGUCCGGGAGGACGAAACAG | 0.255
ACCGGAUGUGCUUUCCGGUAUGAUGAGUCCGAGAGGACGAAACAG | 0.471
ACCGGAUGUGCUUUCCGGUAUGAUGAGUCCGCGAGGACGAAACAG | 0.541
ACCGGAUGUGCUUUCCGGUAUGAUGAGUCCGUGAGGCCGAAACAG | 0.417
ACCGGAUGUGCUUUCCGGUAUGAUGAGUCCGUGAGGGCGAAACAG | 0.441
ACCGGAUGUGCUUUCCGGUAUGAUGAGUCCGUGAGGUCGAAACAG | 0.353
ACCGGAUGUGCUUUCCGGUAUGAUGAGUCCGUCAGGACGAAACAG | 0.555
